Assay results published in article PMC6343008.

Target: Globin E1 of the South American lungfish Lepidosiren paradoxa, recombinant (Lepidosiren paradoxa)

cooperativity (n) of the O2 equilibrium curve, pH 7.2, 20 °C: 1.19
Substance: Globin E1 of the South American lungfish Lepidosiren paradoxa, recombinant (natural protein)
